Reference: patent US20100086958A1, “NOVEL ENZYME” (priority 2008, published 2010)

Test: Ketoreductase (KRED101)/BspFDH2 coupled reduction of ethyl 4-chloro-3-oxobutanoate
Assay type: biochemical
Experimental: NADP^+ (10 mM, 1 mL) and BspFDH2 (17 mg/mL, 500 μL) were then added and the reaction shaken for 30 minutes at room temperature. After 30 minutes, KRED101 (40 mg/mL, 300 μL) was added. The reaction was monitored by GC-MS (Rt˜3.1 minutes). After 15 hr, the reaction mixture was extracted by DCM (3×1 mL) and combined organic phases were dried and the solvent removed to afford ethyl 4-chloro-3-hydroxybutanoate (6 above, >99% conversion based on GC chromatogram and HPLC). The GC-MS data were collected as example 1a. Chiral HPLC was performed on a Chiralcel OB packed column (0.46 cm I.D.×25 cm L; Daicel Chemical Industries, Japan) at 217 nm, with an eluent of n-hexane/2-propanol (9.3:0.7, v/v) at a flow rate of 1 mL/min. IR, vmax (thin film), 3600-3100 (br, O—H), 1731 (s, C═O) cm^−1. ^1H-NMR (400 MHz, Chloroform-d): δ ppm 1.29 (t, J=7.07 Hz, 3H), 2.55-2.70 (m, 2H), 3.62 (dd, J=5.31, 2.78 Hz, 2H) 4.19 (q, J=7.07 Hz, 2H), 4.23-4.30 (m, 1H). ^13C-NMR (400 MHz, Chloroform-d): δ ppm 14.11, 38.41, 48.11, 61.01, 67.92, 171.78. GC-MS (CI^+): m/z Calcd for C6H12O3Cl [M+H]+=167, C6H15O3Cl [M+NH4]^+=184; Found: 167 (M+H)^+, 184 (M+NH4)^+. HPLC-UV/Vis: (tR=7.9 minutes, tS=9.4 minutes), >99% e.e. of S.
D-(S)-4-chloro-3-hydroxybutanoate ethyl ester is a key chiral pharmaceutical intermediate used in the enantioselective synthesis of, for example, slagenin B and C and HMG-CoA reductase inhibitors. […]

- reaction complete within (coupled with KRED101): ≤ 30 min
B1: Bsp383FDH: wild type FDH from Burkholderia sp 383, Seq ID No: 1, C-terminal His-tagged (protein, listed as Burkholderia sp.)
chain: MATVLCVLYPDPVDGYPPRYVRDAIPVITHYADGQTAPTPAGPPGFQPGELVGCVSGALGLRGYMEAHGHTLIVTSDKDSPDSEFERRLPEADVVISQPFWPAYLTAERIARAPKLKLALTAGIGSDHVDLDAAARARITVAEVTGSNSISVAEHVVMTTLALVRNYLPSHAIAQQGGWNIADCVSRSYDVEGMHFGTVGAGRIGLAVLRRLKPFGLQLHYTQRHRLDASIEQELGLTYHADAASLASAVDIVNLQIPLYPSTEHLFDAAMIARMKRGAYLINTARAKLVDRDAVVNALTSGHLAGYGGDVWFPQPAPADHPWRTMPFNGMTPHISGTSLSAQARYAAGTLEILQCWFDGKPIRNEYLIVDGGTLAGTGAQSYRLT
modifications: C-terminal His tag
- conversion of ethyl 4-chloro-3-oxobutanoate to ethyl 4-chloro-3-hydroxybutanoate (coupled with KRED101, NADPH regeneration, GC and HPLC): > 99%
